Source: patent US6528283 (INSTITUTE NATIONAL DE LA SANT ET DE LA RECHERCHE M DICALE, dated 2003)
Read-outs that look alike come from different tables or passages of the source.

T1: GAL4 DNA-binding domain alone (empty pAS2-1 vector, negative control bait) (UniProt P04386 1-47, limits assumed)
T1 chain (looked up): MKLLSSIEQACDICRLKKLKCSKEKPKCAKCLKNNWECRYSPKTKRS

B1: hD53 interactor (GAL4 activation domain fused to full-length hD53, pACT2hD53) (other)
chain: ANFNQSGNIADSSLSFTFTNSSNGPNLITTQTNSQALSQPIASSNVHDNFMNNEITASKIDDGNNSKPLSPGWTDQTAYNAFGITTGMFNTTTMDDVYNYLFDDEDTPPNPKKEMEAQAQGLLETEPLQGTDEDAVASADFSSMLSEEEKEELKAELVQLEDEITTLRQVLSAKERHLVEIKQKLGMNLMNELKQNFSKSWHDMQTTTAYKKTHETLSHAGQKATAAFSNVGTAISKKFGDMSYSIRHSISMPAMRNSPTFKSFEERVETTVTSLKTKVGGTNPNGGSFEEVLSSTAHASAQSLAGGSRRTKEEELQC
B2: mD52(95-185) bait (GAL4 DNA-binding domain fused to the C-terminal half of mD52, pAS2-1mD52(95-185)) (other)
chain: MKLLSSIEQACDICRLKKLKCSKEKPKCAKCLKNNWECRYSPKTKRSAYKKTSETLSQAGQKASAAFSSVGSVITKKLEDVKNSPTFKSFEEKVENLKSKVGGAKPAGGDFGEVLNSTANATSTMTTEPPPEQMTESP
notes: range 1-47
B3: hD52 bait (GAL4 DNA-binding domain fused to full-length hD52, pAS2-1hD52) (other)
chain: MKLLSSIEQACDICRLKKLKCSKEKPKCAKCLKNNWECRYSPKTKRSMDRGEQGLLRTDPVPEEGEDVAATISATETLSEEEQEELRRELAKVEEEIQTLSQVLAAKEKHLAEIKRKLGINSLQELKQNIAKGWQDVTATSAYKKTSETLSQAGQKASAAFSSVGSVITKKLEDVKNSPTFKSFEEKVENLKSKVGGTKPAGGDFGEVLNSAANASATTTEPLPEKTQESL
notes: range 1-47; Fusion expressed in yeast; also called pAS2-1D52; full-length hD52 bait

Columns and labels:
[1] = molecular target: hD53 bait (GAL4 DNA-binding domain fused to full-length hD53, pAS2-1hD53) (human, UniProt P04386 1-47 (Saccharomyces cerevisiae entry), limits assumed); test: cell-based or functional assay
[2] = molecular target: hD54+ins2 bait (GAL4 DNA-binding domain fused to hD54+ins2, pAS2-1hD54+ins2) (human, UniProt P04386 1-47 (Saccharomyces cerevisiae entry), limits assumed); test: cell-based or functional assay
[3] = molecular target: T2, mD52 bait (GAL4 DNA-binding domain fused to full-length mD52, pAS2-1mD52) (mouse, UniProt P04386 1-47 (Saccharomyces cerevisiae entry), limits assumed); test: cell-based or functional assay
[4] = molecular target: T1, GAL4 DNA-binding domain alone (empty …); test: cell-based or functional assay
[5] = molecular target: B3; test: cell-based or functional assay
[6] = molecular target: hD54-ins2 bait (GAL4 DNA-binding domain fused to hD54-ins2, pAS2-1hD54-ins2) (human, UniProt P04386 1-47 (Saccharomyces cerevisiae entry), limits assumed); test: cell-based or functional assay
[7] = molecular target: T2, mD52 bait (GAL4 DNA-binding domain …); test: cell-based or functional assay; remark: listed apart in the source
[8] = molecular target: mD52(1-95) bait (GAL4 DNA-binding domain fused to the N-terminal half of mD52, pAS2-1mD52(1-95)) (mouse, UniProt P04386 1-47 (Saccharomyces cerevisiae entry)); test: cell-based or functional assay
[9] = molecular target: B2; test: cell-based or functional assay
[10] = molecular target: eukaryotic initiation factor 4AII library interactor (pAD-GAL4 construct) (human, UniProt P04386 761-881; Q14240 1-407, limits assumed); test: yeast two-hybrid, retransfection of a library interactor in Hf7c
Procedure: Transformants were plated onto solid SD/-His-Trp-Leu (incorporating 35 mM 3-AT in the case of Y190 transformants) and incubated for up to 14 days at 30° C. […] Colonies which remained His+, and in the case of Y190 co-transformants, were also lacZ+, were re-streaked onto fresh plates to check that all colonies were of uniform phenotype. After 6 days incubation at 30° C., yeast colonies were directly harvested, and plasmid DNA was isolated and used to transfect XL1 Blue. Mini-preparations of plasmid DNA were performed for at least 5 XL1 Blue colonies per transfection, with the results of restriction digests differentiating potential interactors from bait plasmids. […] Phenotypes of resulting co-transfectants were assayed quantitatively and/or qualitatively as described above.

[11] = molecular target: B1; test: yeast two-hybrid, quantitative β-galactosidase assay in Y190
Procedure: Interactions between baits and interactors were assessed by qualitatively and/or quantitatively determining HIS3 and lacZ reporter gene activity in Y190 co-transfectants. […] For quantitative assessment of interactions, β-galactosidase activity was measured using the substrate o-nitrophenyl β-D-galactopyranoside (ONPG) in liquid cultures (SD/-His-Trp-Leu +35 mM 3-AT) of Y190 co-transfectants.

Binder	β-galactosidase activity, yeast two-hybrid (Y190) [1]	β-galactosidase activity, yeast two-hybrid (Y190) [2]	β-galactosidase activity, yeast two-hybrid (Y190) [3]	β-galactosidase activity, yeast two-hybrid (Y190) [4]	β-galactosidase activity, yeast two-hybrid (Y190) [5]	β-galactosidase activity, yeast two-hybrid (Y190) [6]	β-galactosidase activity, yeast two-hybrid (Y190) [7]	β-galactosidase activity, yeast two-hybrid (Y190) [8]	β-galactosidase activity, yeast two-hybrid (Y190) [9]	binding result [10]	binding result [11]
B1	18.1 β-galactosidase activity units (positive control = 1000)	11.7 β-galactosidase activity units (positive control = 1000)	6.07 β-galactosidase activity units (positive control = 1000)	0 β-galactosidase activity units (positive control = 1000)	15.2 β-galactosidase activity units (positive control = 1000)	17.6 β-galactosidase activity units (positive control = 1000)	5.44 β-galactosidase activity units (positive control = 1000)	6.95 β-galactosidase activity units (positive control = 1000)	0.5 β-galactosidase activity units (positive control = 1000)	–	–
B2	–	–	–	–	–	–	–	–	–	no binding	no binding
B3	–	–	–	–	–	–	–	–	–	no binding	–
